Reference: article PMC7005942

Molecular target: HIV-1 integrase wild type (HIV-1) (UniProt P12497)
Assay: filter binding
Conditions: Filter binding: 20 mM Tris-HCl pH 7.5, 200 mM NaCl, 6 mM MgCl2, 1 mM DTT, 0.1 mg/mL BSA, room temperature, 10 min

HIV-1 TAR (1-57) was tested, and the Kd was > 5 µM.
